The values below come from PMC11951046.

For assay [1], the target named is Cyt2Aa2 protoxin (Bacillus thuringiensis subsp. darmstadiensis). The assay is described as follows: SDS-PAGE of unheated sample with immunodetection.
In assay [2] the target is activated Cyt2Aa2 protein (chymotrypsin-activated) (Bacillus thuringiensis subsp. darmstadiensis). The assay is described as follows: SDS-PAGE ladder pattern of unheated sample with immunodetection.

For orientation: stoichiometry N means a count of units in the complex or per binding partner. In assay [1], Cyt2Aa2 protoxin (natural protein) yielded a stoichiometry N of 2. On to “activated Cyt2Aa2 protein (chymotrypsin-activated) (natural protein)”, for which the stoichiometry N in assay [2] was above 10.
